The test system of assay [1] is human breast cancer tissue sections. Put plainly: immunohistochemistry on human breast cancer tissue sections. To be noted: chimeric form with murine constant domain, 10 μg/mL, DAB. How it is done: Human breast cancer tissue sections were allowed to dry for 10 min at room temperature, and then fixed for 15 minutes in 4% paraformaldahyde, followed by washing three times 5 minutes in PBS. Slides were then incubated for 5 min in 0.3% H2O2 in PBS to block endogenous peroxidase activity, and subsequently washed 3 times 5 min in PBS. Endogenous biotin was then blocked using the Biotin-Blocking System (DAKO X0590), followed by times washing with PBS. Blocking of unspecific antibody binding and permeabilization of the tissue section was performed using blocking buffer (5% goat serum, 5% horse serum, 0.3M glycine, 5% BSA, and 0.5% Triton X100 in PBS). Tissue sections were then stained with a recombinantly engineered chimeric form of NI-206.82C2 with a murine constant domain and the human variable domain of the original antibody and a matched isotype control (43A11) at 10 μg/mL in permeabilization buffer overnight at 4° C. Following three PBS washing steps, the sections were incubated with a biotinylated goat anti-mouse antibody for 1 h at room temperature. For amplifying the target antigen the VECTASTAIN ABC kit (Vector Labs) was used, followed by development with 3,3′-diaminobenzidine (DAB) and counterstained with Mayer's haematoxylin blue. […]

The target in another assay is T1, FAP in human plasma (Homo sapiens, UniProt Q12884).
T1 construct: from tissue; host or cells: human blood plasma
T1 sequence (Q12884 24-760 limits assumed): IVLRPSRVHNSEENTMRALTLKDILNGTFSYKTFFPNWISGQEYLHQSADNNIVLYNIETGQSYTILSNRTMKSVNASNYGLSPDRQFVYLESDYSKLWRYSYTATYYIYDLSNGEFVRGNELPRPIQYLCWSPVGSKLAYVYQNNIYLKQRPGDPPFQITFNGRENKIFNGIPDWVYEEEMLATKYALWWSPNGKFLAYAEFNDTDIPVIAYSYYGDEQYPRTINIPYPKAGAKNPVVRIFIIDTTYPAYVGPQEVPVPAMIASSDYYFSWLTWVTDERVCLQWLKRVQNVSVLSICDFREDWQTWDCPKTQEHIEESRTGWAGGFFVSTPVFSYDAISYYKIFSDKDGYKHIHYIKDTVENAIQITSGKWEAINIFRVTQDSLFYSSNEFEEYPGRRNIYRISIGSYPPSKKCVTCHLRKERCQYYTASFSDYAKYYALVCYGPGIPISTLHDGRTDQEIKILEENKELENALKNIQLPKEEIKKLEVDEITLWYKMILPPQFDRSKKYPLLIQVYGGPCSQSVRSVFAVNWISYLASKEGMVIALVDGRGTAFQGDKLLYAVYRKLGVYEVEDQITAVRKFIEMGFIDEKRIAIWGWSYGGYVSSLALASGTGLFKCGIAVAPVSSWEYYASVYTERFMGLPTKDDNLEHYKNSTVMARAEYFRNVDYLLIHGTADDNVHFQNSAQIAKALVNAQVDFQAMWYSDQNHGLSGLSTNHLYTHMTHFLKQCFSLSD
The assay is described as follows: immunoprecipitation of FAP from human plasma, α2AP-AMC cleavage. The assay is classed as biochemical. The conditions noted are these: compared to plasma before immunoprecipitation. On the procedure:
100 μL of PureProteome G Magnetic Beads (Millipore LSKMAGG02) were suspended in 500 μL of 25 mM TRIS, 0.15M NaCl, and 0.1% Tween 20. Human plasma was diluted 1:5 in PBS to an end volume of 125 μL, separated into four tubes, and incubated for 30 min at RT with rotation. Beads were then collected with a magnetic stand, and the pre-cleared supernatant was transferred to a new tube containing magnetic beads coated with 82C2, 43A11, or 3A1. Antibody-conjugated beads were incubated with the plasma dilution overnight at 4° C. while rotating. Beads were then collected with a magnetic stand and the supernatant was removed of analysis of α2AP-AMC cleavage activity. To determine α2AP-AMC activity in the supernatants, a half area black 96 well plate was blocked with sterile filtered 5% BSA at 37° C. for 1 h. Then 40 μL of PBS was added to all the wells, 5 μL of the supernatant solutions to the appropriate wells, and 5 μL of α2AP-AMC solution in methanol was added for a final assay concentration of 10 μM. The fluorescence intensity (cleaved AMC) was measured at 360 nm excitation and 460 nm emission every 3 min over a total time of 30 min and the reaction velocity was calculated using Graphpad Prism 6 software.

B1: NI-206.82C2: human-derived recombinant anti-FAP antibody; VH SEQ ID NO: 2 or 4 (PIMC), VL SEQ ID NO: 6 (antibody, V domains shown)
VH: QVQLQQSGPGLVKPSQTLSLTCAISGDSVSSNSVTWNWIRQSPSRGLEWLGRTYYRSKWYNDYAVSVKGRITINPDTSKNQFYLQLKSVTPEDAAVYYCARDSSILYGDYWGQGTLVTVSS
VL: QAVLTQPSSLSASPGASASLTCTLPSGINVGTYRIFWFQQKPGSPPQYLLSYKSDSDNHQGSGVPSRFSGSKDASANAGILLISGLQSEDEADYYCMIWHSSAWVFGGGTKLTVL
Regarding B1, in assay [1], the “staining of human ductal carcinoma in-situ tissue” value is on record as “Positive staining” and the “staining of human invasive ductal carcinoma tissue” value is “Positive staining”. Further, the “rate of α2AP-AMC cleavage in plasma after immunoprecipitation” value with FAP in human plasma is “significantly reduces”.

The values are drawn from patent US20180022822A1, “NOVEL ANTI-FIBROBLAST ACTIVATION PROTEIN (FAP) BINDING AGENTS AND USES THEREOF” (Mabimmune Diagnostics AG, priority 2016, published 2018).
